These results are taken from patent US20130288979A1 (CENTRE NATIONAL DE LA RECHERCHE SCIENTIFIQUE CNRS, published 2013).

The target in assay [1] is T1, His-tagged intracellular region of Fas receptor (UniProt P25445 191-335, limits assumed).
T1 construct: domain: intracellular region; Bought reagent (Sigma); also called intra-cellular region of the Fas receptor (Sigma); not shown: His tag
T1 sequence (looked up): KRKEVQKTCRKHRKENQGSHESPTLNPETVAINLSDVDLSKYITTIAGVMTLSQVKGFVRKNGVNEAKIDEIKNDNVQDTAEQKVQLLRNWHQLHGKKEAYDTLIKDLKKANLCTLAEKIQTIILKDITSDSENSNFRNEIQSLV
Nature of the assay: SPOT pepscan of DAXX (15mers, shift 3) on membrane, probed with His-tagged Fas intracellular region, anti-His(mouse)/anti-mouse-HRP, enzyme-linked blot.

In assay [2] the target is T1, His-tagged intracellular region of Fas …. Nature of the assay: SPR (Biacore), mean of three experiments ± SD. Here is the method: Additionally, the potential interaction of the fragments with the intracellular region of the Fas receptor was cross-validated by measuring the binding affinities (Kd) using the surface plasmon resonance (SPR) technique (Biacore Life Science, Sweden).
All experiments are performed on a Biacore instrument. For each condition, the mean value of three independent experiments and the corresponding standard deviation are plotted.

Non-standard residues stand in square brackets, D forms with d. No end group written: not given here. Ahx = NCCCCCC(=O)O

B1: ncDAXXp (peptide)
peptide: AKLYVYINELCTVLK
notes: Negative-control DAXX 15mer; the text uses it as Tat-ncDAXXp in the cell assays; also called circled spot at the start of row 41 of the DAXX pepscan
Take B1: in assay [1], the binding result was “no binding”.

B2: mDAXXp (peptide)
peptide: KRFRKEKKQLGSGLLG-NH2
modifications: not fully specified; printed as KRFRKEKKQLGSGLLG-NH2
notes: also called mouse homolog of human DAXXp; murine DAXXp
For orientation: Kd means the concentration at which binding is half-saturated. With B2, in assay [2], the affinity, expressed as Kd, was 252 µM.

B3: DAXXp (peptide)
peptide: KKSRKEKKQTGSGPLG-NH2
notes: also called DAXX peptide
Regarding B3, in assay [2], binding was put at a Kd of 333 µM.

B4: Tat-DAXXp (peptide)
peptide: GRKKRRQRRRPPQKKSRKEKKQTGSGPLG-NH2
notes: Conjugate of the Tat cell penetrating peptide (N-terminal) and DAXXp
As to B4, the affinity in assay [2], expressed as Kd, was 13 µM.

B5: Pip2b-DAXXp (peptide)
peptide: R[Ahx]RR[Ahx]RR[Ahx]RIHILFQN[dR]RMKWHKKKSRKEKKQTGSGPLG-NH2
modifications: not fully specified
notes: 39 residues; holds non-natural residues in the Pip2b part
B5: the Kd in assay [2] was 0.7 µM.
